Literature values, collected in patent US5814460A, “Method for generating and screening useful peptides” (Diatide, Inc., priority 1995, dated 1998).
Read-outs that look alike come from different tables or passages of the source.

Experiments:
[1] = biological target: Angiotensin II Receptor; details: Table 6
[2] = biological target: fibrin polymerization (Homo sapiens, UniProt P02679); details: literature statement
[3] = biological target: Urokinase Receptor (hum.) (Homo sapiens, UniProt Q03405); details: Table 6
Urokinase Receptor (hum.), sequence (Q03405 23-335): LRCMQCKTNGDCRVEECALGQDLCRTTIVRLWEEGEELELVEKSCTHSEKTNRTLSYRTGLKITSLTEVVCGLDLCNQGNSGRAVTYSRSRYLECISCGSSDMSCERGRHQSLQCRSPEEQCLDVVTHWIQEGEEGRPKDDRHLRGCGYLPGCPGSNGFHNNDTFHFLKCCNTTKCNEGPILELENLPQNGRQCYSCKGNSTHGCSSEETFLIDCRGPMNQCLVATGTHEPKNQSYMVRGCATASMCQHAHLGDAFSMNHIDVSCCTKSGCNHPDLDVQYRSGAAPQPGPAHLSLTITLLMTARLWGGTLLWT

[4] = biological target: Fibronectin (rat) (human); details: Table 6
Fibronectin (rat) (human), sequence (P04937 1540-1633 limits assumed): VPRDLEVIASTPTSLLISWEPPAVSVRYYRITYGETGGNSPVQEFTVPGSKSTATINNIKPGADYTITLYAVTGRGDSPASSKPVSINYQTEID

[5] = biological target: Porcine PLA2 (Sus scrofa, UniProt P00592); details: Table 6
Porcine PLA2, sequence (P00592 23-146): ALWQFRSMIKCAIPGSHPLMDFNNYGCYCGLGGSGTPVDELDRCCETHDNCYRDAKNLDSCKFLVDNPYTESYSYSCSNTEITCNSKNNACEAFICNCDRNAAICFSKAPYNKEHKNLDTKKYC

[6] = biological target: T1, streptavidin (Streptomyces avidinii, UniProt P22629); details: read-out: Kd of streptavidin complex
T1 construct: purchased Sigma Chemical Company
T1 sequence (P22629 25-183): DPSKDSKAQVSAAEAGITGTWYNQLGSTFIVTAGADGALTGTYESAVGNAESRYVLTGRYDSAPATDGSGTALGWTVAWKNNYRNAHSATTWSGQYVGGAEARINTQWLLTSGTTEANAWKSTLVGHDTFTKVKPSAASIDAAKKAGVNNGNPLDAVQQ

[7] = biological target: human fibrinogen (Homo sapiens, UniProt P02679); details: read-out: affinities for human fibrinogen
human fibrinogen, sequence (P02671 20-629 partner limits assumed): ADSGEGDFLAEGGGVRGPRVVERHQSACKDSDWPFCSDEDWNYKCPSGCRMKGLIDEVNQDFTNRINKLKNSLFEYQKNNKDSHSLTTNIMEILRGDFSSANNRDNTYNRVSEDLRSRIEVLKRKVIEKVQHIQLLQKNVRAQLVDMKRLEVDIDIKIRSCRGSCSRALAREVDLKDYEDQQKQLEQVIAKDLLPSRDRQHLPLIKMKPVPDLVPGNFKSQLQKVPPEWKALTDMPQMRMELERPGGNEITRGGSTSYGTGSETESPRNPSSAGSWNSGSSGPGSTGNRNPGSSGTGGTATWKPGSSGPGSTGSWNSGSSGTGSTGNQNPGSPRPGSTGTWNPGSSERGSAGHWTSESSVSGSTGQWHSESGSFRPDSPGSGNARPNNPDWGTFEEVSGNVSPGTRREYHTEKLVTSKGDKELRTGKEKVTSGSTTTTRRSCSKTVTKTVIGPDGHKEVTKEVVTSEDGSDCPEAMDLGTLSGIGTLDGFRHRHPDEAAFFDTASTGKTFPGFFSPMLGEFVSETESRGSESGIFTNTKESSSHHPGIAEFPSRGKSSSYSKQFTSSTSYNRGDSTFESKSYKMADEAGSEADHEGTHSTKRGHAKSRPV
human fibrinogen, sequence (P02675 31-491 partner): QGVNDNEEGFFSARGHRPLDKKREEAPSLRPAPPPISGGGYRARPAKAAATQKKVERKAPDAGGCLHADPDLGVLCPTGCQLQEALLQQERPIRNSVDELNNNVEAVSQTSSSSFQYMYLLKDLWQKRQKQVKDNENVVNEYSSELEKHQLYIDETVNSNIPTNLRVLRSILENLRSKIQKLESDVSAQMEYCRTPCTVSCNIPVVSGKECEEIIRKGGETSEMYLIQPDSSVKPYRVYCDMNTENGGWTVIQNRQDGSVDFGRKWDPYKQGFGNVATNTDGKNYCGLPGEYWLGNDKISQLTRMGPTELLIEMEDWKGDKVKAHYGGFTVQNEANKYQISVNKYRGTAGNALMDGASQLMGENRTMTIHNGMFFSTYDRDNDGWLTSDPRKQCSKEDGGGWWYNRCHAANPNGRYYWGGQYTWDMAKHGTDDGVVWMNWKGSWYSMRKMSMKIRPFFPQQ
human fibrinogen, sequence (P02679 27-433 limits assumed): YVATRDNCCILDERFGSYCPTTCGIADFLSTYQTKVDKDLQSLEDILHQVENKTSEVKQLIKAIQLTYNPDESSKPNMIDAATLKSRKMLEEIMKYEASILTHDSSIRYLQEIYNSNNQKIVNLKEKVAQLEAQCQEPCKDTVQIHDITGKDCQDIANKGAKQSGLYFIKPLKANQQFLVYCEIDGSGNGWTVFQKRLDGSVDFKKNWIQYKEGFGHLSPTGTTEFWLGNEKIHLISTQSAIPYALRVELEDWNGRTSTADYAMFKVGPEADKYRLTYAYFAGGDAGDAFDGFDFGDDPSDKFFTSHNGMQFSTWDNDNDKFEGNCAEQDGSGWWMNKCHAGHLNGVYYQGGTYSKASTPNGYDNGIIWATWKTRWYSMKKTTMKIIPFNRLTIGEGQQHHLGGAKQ

[8] = biological target: Calmodulin (Homo sapiens, UniProt P0DP23); details: Table 6
[9] = biological target: CD4 (Homo sapiens, UniProt P01730); details: Table 6
[10] = biological target: fibrinogen receptor (GpIIb IIIa) (Homo sapiens, UniProt P05106+P08514)
[11] = biological target: Pepsin (hum.) (Homo sapiens, UniProt P0DJD7); details: Table 6
Pepsin (hum.), sequence (P0DJD7 63-388): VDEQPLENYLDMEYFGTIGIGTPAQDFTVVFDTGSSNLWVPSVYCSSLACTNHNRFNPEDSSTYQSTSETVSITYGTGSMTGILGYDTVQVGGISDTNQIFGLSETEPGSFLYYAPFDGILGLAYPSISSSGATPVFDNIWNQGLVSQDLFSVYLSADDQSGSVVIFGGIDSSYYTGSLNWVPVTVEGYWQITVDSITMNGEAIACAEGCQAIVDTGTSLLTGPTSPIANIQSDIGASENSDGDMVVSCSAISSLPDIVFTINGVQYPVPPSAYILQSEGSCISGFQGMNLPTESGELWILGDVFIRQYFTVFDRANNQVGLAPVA

[12] = biological target: T2, Gastricsin (hum.) (Homo sapiens, UniProt P20142); details: Table 6
T2 sequence (P20142 60-388): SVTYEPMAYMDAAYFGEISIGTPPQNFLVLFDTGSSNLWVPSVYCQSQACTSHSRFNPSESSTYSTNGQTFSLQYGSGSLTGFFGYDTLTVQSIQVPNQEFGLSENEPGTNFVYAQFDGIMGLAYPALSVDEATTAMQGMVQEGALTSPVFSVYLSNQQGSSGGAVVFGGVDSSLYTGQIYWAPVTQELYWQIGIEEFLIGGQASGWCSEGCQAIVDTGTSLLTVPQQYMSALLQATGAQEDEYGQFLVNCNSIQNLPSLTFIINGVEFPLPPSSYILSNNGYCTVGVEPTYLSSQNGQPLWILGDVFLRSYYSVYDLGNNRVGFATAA

[13] = Table 6, target GpIIb IIa, read-out: Kd

fibrin polymerization, sequence (P02671 20-629 partner limits assumed): as the sequence (P02671 20-629 partner limits assumed) above
fibrin polymerization, sequence (P02675 31-491 partner): as the sequence (P02675 31-491 partner) above
fibrin polymerization, sequence (P02679 27-433 limits assumed): as the sequence (P02679 27-433 limits assumed) above

Compound: EGVYVHPV
- Kd [1]: 100 nM

Compound: GPRP
- inhibition of fibrin polymerization [2]: inhibit fibrin polymerization

Compound: TCVXNKYFSNIHW: lead peptide (urokinase) for urokinase receptor
- Kd [3]: 1000 nM

Compound: WTVPTA: lead peptide, antisense of GAVSTA RGD sequence, for fibronectin
- Kd [4]: 1000 nM

Compound: MLFILIKRSRHF
- Kd [5]: 10 µM

Compound: N=C1N[C@H]2[C@H](CS[C@H]2CCCCC(=O)O)N1 [imminobiotin]
- Kd [6]: ~10 nM

Compound: GPRV: synthetic peptide beginning with GPR that binds fibrinogen
- inhibition of fibrin polymerization [2]: inhibit fibrin polymerization
- Kd [7]: 100 µM

Compound: VAITVLVK
- Kd [8]: 1000 nM

Compound: TNYT: lead peptide for CD4
- Kd [9]: 1000 nM

Compound: Gly-Pro-Arg [GPR]
- inhibition of fibrin polymerization [2]: inhibit fibrin polymerization
- Kd [7]: 50 µM

Compound: GRGDSP: lead peptide (Fb) for GpIIb IIIa
- Kd [10, 13]: 1000 nM

Compound: RIFLKRMPSIR
- Kd [11]: 1000 nM

Compound: Arg-Gly-Asp-Trp (RGDW)
- Kd [10, 13]: 1000 nM
- Kd ([10]; example of a lead peptide, read-out: affinity (Kd) for fibrinogen receptor): 5000 nM

Compound: TTFKRIFLKRMPS
- Kd [12]: 1000 nM

Compound: RGDY: RGD containing peptide binding GpIIb IIIa
- Kd [10, 13]: 1000 nM
